Data published in article PMC2896474, “Thioredoxin A Active-Site Mutants Form Mixed Disulfide Dimers That Resemble Enzyme–Substrate Reaction Intermediates” (Journal of Molecular Biology, 2008).

Target: the molecule itself
Test: nonreducing SDS-PAGE + capillary gel electrophoresis (2100 Bioanalyzer); purified His6-tagged BsTrxA proteins alone, ~2.5 μg a lane, nonreducing conditions (no DTT, no AMS); peak integration for dimer-to-monomer ratios; dimer to monomers (Fig. 2a)

| Protein | stoichiometry N |
| --- | --- |
| C32S single-mutant BsTrxA, C-terminal His6-tag (enzyme, B. subtilis 168, UniProt P14949 1-104, looked up, In the homodimer the two chains are joined by a Cys29-Cys29 disulfide bond (crystal structure 2VOC); Vector probably adds Leu-Glu before His6 (surmised); also called C32S BsTrxA; TrxA C32S; source: E. coli BL21(DE3), purified (nickel IMAC HisTrap HP, Superdex 75 gel filtration); not shown: His6, C-terminal, kept) MAIVKATDQSFSAETSEGVVLADFWAPWCGPSKMIAPVLEELDQEMGDKLKIVKIDVDENQETAGKYGVMSIPTLLVLKDGEVVETSVGFKPKEALQELVNKHL | 2 |
| C29S single-mutant BsTrxA, C-terminal His6-tag (enzyme, B. subtilis 168, UniProt P14949 1-104, looked up, Vector probably adds Leu-Glu before His6 (surmised); also called C29S BsTrxA; BsTrxA(C29S); source: E. coli BL21(DE3), purified (nickel IMAC HisTrap HP, Superdex 75 gel filtration); not shown: His6, C-terminal, kept) MAIVKATDQSFSAETSEGVVLADFWAPWSGPCKMIAPVLEELDQEMGDKLKIVKIDVDENQETAGKYGVMSIPTLLVLKDGEVVETSVGFKPKEALQELVNKHL | 2 |
